Blank lines part the entries; values can stand above or below the binder they belong to.
Legend:
[1] = target: T1, 4H3632-bH; experiment: two-hybrid library CCNG1;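 note: natural log of median RNA to DNA barcode read ratio; higher means stronger binding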
T1 chain: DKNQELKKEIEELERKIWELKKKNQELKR

[2] = target: T2, 4H342-bH; experiment: two-hybrid library CCNG1;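 note: natural log of median RNA to DNA barcode read ratio; higher means stronger binding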
T2 chain: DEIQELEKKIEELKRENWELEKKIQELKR

[3] = target: T3, 4H3070-bH; experiment: two-hybrid library CCNG1;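 note: natural log of median RNA to DNA barcode read ratio; higher means stronger binding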
T3 chain: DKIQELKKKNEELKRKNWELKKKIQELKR

[4] = target: T4, 4H496-bH; experiment: two-hybrid library CCNG1;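 note: natural log of median RNA to DNA barcode read ratio; higher means stronger binding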
T4 chain: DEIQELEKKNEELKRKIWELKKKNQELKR

[5] = target: T5, 4H2691-bH; experiment: two-hybrid library CCNG1;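 note: natural log of median RNA to DNA barcode read ratio; higher means stronger binding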
T5 chain: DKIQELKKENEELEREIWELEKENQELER

[6] = target: T6, 4H754-bA; experiment: two-hybrid library CCNG1;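 note: natural log of median RNA to DNA barcode read ratio; higher means stronger binding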
T6 chain: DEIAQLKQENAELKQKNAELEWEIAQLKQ

[7] = target: T7, 4H797-bA; experiment: two-hybrid library CCNG1
T7 chain: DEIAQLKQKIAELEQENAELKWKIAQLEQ

[8] = target: T8, 4H3427-bA; experiment: two-hybrid library CCNG1
T8 chain: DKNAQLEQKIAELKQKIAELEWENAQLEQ

[9] = target: T9, 4H3112-bA; experiment: two-hybrid library CCNG1
T9 chain: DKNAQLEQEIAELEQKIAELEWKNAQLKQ

[10] = target: T10, 4H3926-bA; experiment: two-hybrid library CCNG1
T10 chain: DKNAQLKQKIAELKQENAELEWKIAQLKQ

[11] = target: T11, 4H780-bA; experiment: two-hybrid library CCNG1
T11 chain: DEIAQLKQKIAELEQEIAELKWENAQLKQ

[12] = target: T12, 4H4073-bA; experiment: two-hybrid library CCNG1
T12 chain: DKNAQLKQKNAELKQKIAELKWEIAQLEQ

[13] = target: T13, 4H953-bA; experiment: two-hybrid library CCNG1
T13 chain: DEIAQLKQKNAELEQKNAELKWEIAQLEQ

[14] = target: T14, 4H2586-bA; experiment: two-hybrid library CCNG1
T14 chain: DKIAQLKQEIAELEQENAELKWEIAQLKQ

[15] = target: T15, 4H683-bA; experiment: two-hybrid library CCNG1
T15 chain: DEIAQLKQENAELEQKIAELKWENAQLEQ

[16] = target: T16, 4H346-bA; experiment: two-hybrid library CCNG1
T16 chain: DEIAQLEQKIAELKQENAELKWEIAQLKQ

[17] = target: T17, 4H118-bA; experiment: two-hybrid library CCNG1
T17 chain: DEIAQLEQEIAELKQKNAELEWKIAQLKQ

[18] = target: T18, O3-bP; experiment: two-hybrid library CCNG1
T18 chain: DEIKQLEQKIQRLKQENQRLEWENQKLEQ

[19] = target: T19, 4H575-bA; experiment: two-hybrid library CCNG1
T19 chain: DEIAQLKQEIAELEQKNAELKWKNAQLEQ

[20] = target: T20, 4H855-bA; experiment: two-hybrid library CCNG1
T20 chain: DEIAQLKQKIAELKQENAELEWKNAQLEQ

[21] = target: T21, 4H457-bA; experiment: two-hybrid library CCNG1
T21 chain: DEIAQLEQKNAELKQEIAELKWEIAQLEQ

[22] = target: T22, 4H918-bA; experiment: two-hybrid library CCNG1
T22 chain: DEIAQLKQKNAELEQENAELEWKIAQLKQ

[23] = target: T23, 4H968-bA; experiment: two-hybrid library CCNG1
T23 chain: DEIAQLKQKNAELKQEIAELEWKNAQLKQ

[24] = target: T24, 4H2702-bA; experiment: two-hybrid library CCNG1
T24 chain: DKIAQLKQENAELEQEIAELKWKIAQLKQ

[25] = target: T25, 4H3010-bA; experiment: two-hybrid library CCNG1
T25 chain: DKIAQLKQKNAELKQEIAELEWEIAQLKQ

[26] = target: T26, 4H170-bA; experiment: two-hybrid library CCNG1
T26 chain: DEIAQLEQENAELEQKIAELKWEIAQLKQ

[27] = target: T27, 4H2627-bA; experiment: two-hybrid library CCNG1
T27 chain: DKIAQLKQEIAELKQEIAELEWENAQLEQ

[28] = target: T28, 4H1831-bA; experiment: two-hybrid library CCNG1
T28 chain: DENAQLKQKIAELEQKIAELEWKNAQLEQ

[29] = target: T29, 4H2673-bA; experiment: two-hybrid library CCNG1
T29 chain: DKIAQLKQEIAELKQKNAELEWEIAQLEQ

[30] = target: T30, APC5009-AA; experiment: two-hybrid library CCmax; conditions: mean of both orientations
T30 chain: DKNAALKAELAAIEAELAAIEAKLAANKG

[31] = target: T31, APC2724-AA; experiment: two-hybrid library CCmax; conditions: mean of both orientations
T31 chain: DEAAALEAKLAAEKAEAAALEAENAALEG

[32] = target: T32, APC2811-AA; experiment: two-hybrid library CCmax; conditions: mean of both orientations
T32 chain: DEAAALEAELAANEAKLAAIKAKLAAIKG

[33] = target: T33, APC4100-AA; experiment: two-hybrid library CCmax; conditions: mean of both orientations
T33 chain: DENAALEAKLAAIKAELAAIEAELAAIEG

[34] = target: T34, APC3354-AA; experiment: two-hybrid library CCmax; conditions: mean of both orientations
T34 chain: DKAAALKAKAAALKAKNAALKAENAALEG

[35] = target: T35, APC2375-AA; experiment: two-hybrid library CCmax; conditions: mean of both orientations
T35 chain: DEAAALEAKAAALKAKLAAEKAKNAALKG

[36] = target: T36, APC542-AA; experiment: two-hybrid library CCmax; conditions: mean of both orientations
T36 chain: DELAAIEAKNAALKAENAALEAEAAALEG

[37] = target: T37, APC2474-AA; experiment: two-hybrid library CCmax; conditions: mean of both orientations
T37 chain: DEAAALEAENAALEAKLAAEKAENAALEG

[38] = target: T38, APC3881-AA; experiment: two-hybrid library CCmax; conditions: mean of both orientations
T38 chain: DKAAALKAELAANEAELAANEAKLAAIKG

[39] = target: T39, APC9291-AA; experiment: two-hybrid library CCmax; conditions: mean of both orientations
T39 chain: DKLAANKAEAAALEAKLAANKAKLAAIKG

[40] = target: T40, APC9141-AA; experiment: two-hybrid library CCmax; conditions: mean of both orientations
T40 chain: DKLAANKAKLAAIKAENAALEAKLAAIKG

[41] = target: T41, APC5531-AA; experiment: two-hybrid library CCmax; conditions: mean of both orientations
T41 chain: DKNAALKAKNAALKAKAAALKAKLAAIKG

[42] = target: T42, APC8516-AA; experiment: two-hybrid library CCmax; conditions: mean of both orientations
T42 chain: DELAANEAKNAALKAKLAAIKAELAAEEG

[43] = target: T43, APC8401-AA; experiment: two-hybrid library CCmax; conditions: mean of both orientations
T43 chain: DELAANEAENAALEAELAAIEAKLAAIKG

[44] = target: T44, APC3265-AA; experiment: two-hybrid library CCmax; conditions: mean of both orientations
T44 chain: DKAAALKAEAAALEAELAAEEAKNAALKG

[45] = target: T45, APC2556-AA; experiment: two-hybrid library CCmax; conditions: mean of both orientations
T45 chain: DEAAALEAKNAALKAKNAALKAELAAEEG

[46] = target: T46, APC2981-AA; experiment: two-hybrid library CCmax; conditions: mean of both orientations
T46 chain: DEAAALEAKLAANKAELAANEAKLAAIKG

[47] = target: T47, APC6088-AA; experiment: two-hybrid library CCmax; conditions: mean of both orientations
T47 chain: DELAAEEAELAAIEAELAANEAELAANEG

[48] = target: T48, APC2543-AA; experiment: two-hybrid library CCmax; conditions: mean of both orientations
T48 chain: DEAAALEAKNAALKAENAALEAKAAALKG

[49] = target: T49, APC2257-AA; experiment: two-hybrid library CCmax; conditions: mean of both orientations
T49 chain: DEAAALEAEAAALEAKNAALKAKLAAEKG

[50] = target: T50, APC9806-AA; experiment: two-hybrid library CCmax; conditions: mean of both orientations
T50 chain: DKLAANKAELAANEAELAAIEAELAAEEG

[51] = target: T51, APC7524-AA; experiment: two-hybrid library CCmax; conditions: mean of both orientations
T51 chain: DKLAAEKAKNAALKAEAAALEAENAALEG

[52] = target: T52, APC222-AA; experiment: two-hybrid library CCmax; conditions: mean of both orientations
T52 chain: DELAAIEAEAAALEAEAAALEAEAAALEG

[53] = target: T53, APC3323-AA; experiment: two-hybrid library CCmax; conditions: mean of both orientations
T53 chain: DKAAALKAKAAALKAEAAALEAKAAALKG

[54] = target: T54, APC1987-AA; experiment: two-hybrid library CCmax
T54 chain: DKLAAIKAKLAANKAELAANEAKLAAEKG

[55] = target: T55, APC9182-AA; experiment: two-hybrid library CCmax; conditions: mean of both orientations
T55 chain: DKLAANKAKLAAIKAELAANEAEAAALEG

[56] = target: T56, APC4336-AA; experiment: two-hybrid library CCmax; conditions: mean of both orientations
T56 chain: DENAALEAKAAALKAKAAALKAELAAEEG

interaction score [1]: -1.39 | interaction score [2]: -1.06 | interaction score [3]: 0.576 | interaction score [4]: 1.3 | interaction score [5]: -0.0571
Binder: DKIQELKKENEELEREIWELEKENQELER [4H2691-bH]

interaction score [6]: -1.04 | interaction score [7]: -1.22 | interaction score [8]: 0.236 | interaction score [9]: 0.131 | interaction score [10]: 1.96 | interaction score [11]: 0.087 | interaction score [12]: -0.156 | interaction score [13]: -0.791 | interaction score [14]: 0.381 | interaction score [15]: -0.721 | interaction score [16]: -0.612 | interaction score [17]: 1.64 | interaction score [18]: -1.86 | interaction score [19]: 0.369 | interaction score [20]: 0.403 | interaction score [21]: -0.384 | interaction score [22]: -0.49 | interaction score [23]: 0.0453 | interaction score [24]: 0.439 | interaction score [25]: 2.66 | interaction score [26]: -0.0431 | interaction score [27]: 0.852 | interaction score [28]: -0.644 | interaction score [29]: 1.32
Binder: DEIAQLEQEIAELKQKNAELEWKIAQLKQ [4H118-bA]

interaction score [30]: -1.2 | interaction score [31]: -1.7 | interaction score [32]: -1.92 | interaction score [33]: -1.33 | interaction score [34]: -1.64 | interaction score [35]: -1.68 | interaction score [36]: -1.67 | interaction score [37]: -1.87 | interaction score [38]: -1.66 | interaction score [39]: -1.88 | interaction score [40]: -1.68 | interaction score [41]: -1.83 | interaction score [42]: -2.25 | interaction score [43]: -1.6 | interaction score [44]: -1.69 | interaction score [45]: -1.78 | interaction score [46]: -1.82 | interaction score [47]: -1.6 | interaction score [48]: -2.01 | interaction score [49]: -1.35 | interaction score [50]: -1.87 | interaction score [51]: -1.75 | interaction score [52]: -1.81 | interaction score [53]: -2.07 | interaction score [54]: -2.07 | interaction score [55]: -1.95 | interaction score [56]: -1.72
Binder: DKLAAIKAKLAANKAELAANEAKLAAEKG [APC1987-AA]

— PMC10397247
